Reference: doi:10.1101/329482 (bioRxiv, 2018)

Target: GP1 receptor-binding domain of Lujo virus (LUJVGP1), residues 74-199 (Lujo virus (LUJV), UniProt C5ILC1 74-199)
Test: crystal structure

B1: first CUB domain of neuropilin-2 (NRP2), binding site fragment (domain or fragment)
chain: PCGGRLNSKDAGYITSPGYPQDYPSHQNCEWIVYAPEPNQKIVLNFNPHFEIEKHDCKYDFIEIRDGDSESADLLGKHCGNIAPPTIISSGSMLYIKFTSDYARQGAGFSLRYEIFKTGS
B1: binds.
